The target in assay [1] is 5FLAG-Scc1 (yeast (budding yeast, Saccharomyces cerevisiae)) (UniProt Q12158). Briefly: co-IP.
Assay [2] shares this target. Briefly: co-IP. The source holds these as a separate data set.

Like-named read-outs stand apart in the source and are kept apart here.

UniProt Q12158, sequence (Q12158 whole entry): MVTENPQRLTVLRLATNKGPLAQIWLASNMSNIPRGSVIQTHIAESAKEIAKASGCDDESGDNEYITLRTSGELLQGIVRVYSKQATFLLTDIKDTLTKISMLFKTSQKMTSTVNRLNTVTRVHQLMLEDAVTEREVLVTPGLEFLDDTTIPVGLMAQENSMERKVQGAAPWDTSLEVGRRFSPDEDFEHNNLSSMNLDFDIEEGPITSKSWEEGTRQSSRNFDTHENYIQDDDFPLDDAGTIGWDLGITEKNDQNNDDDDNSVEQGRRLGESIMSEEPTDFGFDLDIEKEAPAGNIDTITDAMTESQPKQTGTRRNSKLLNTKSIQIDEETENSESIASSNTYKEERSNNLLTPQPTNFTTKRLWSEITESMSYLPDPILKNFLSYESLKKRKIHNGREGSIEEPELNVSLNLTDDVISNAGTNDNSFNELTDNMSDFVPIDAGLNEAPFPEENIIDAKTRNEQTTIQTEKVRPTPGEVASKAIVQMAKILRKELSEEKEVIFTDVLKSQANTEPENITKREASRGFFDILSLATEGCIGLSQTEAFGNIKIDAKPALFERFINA

As for “GFP-Scc1 (from UniProt Q12158 1-566) (natural protein)”, the percentage of cohesin dimers in assay [1] is 40%; in assay [2], 20%.

The record behind these values is paper doi:10.1101/2020.02.07.938530.
